# Assay results taken from PMC2921341, “Interaction of Serum- and Glucocorticoid Regulated Kinase 1 (SGK1) with the WW-Domains of Nedd4-2 Is Required for Epithelial Sodium Channel Regulation” (PLoS ONE, 2010).
# B1: Nedd4-2: ubiquitin ligase, Nedd4-family member, human (protein)
# chain: MERPYTFKDFLLRPRSHKSRVKGFLRLKMAYMPKNGGQDEENSDQRDDMEHGWEVVDSNDSASQHQEELPPPPLPPGWEEKVDNLGRTYYVNHNNRTTQWHRPSLMDVSSESDNNIRQINQEAAHRRFRSRRHISEDLEPEPSEGGDVPEPWETISEEVNIAGDSLGLALPPPPASPGSRTSPQELSEELSRRLQITPDSNGEQFSSLIQREPSSRLRSCSVTDAVAEQGHLPPPSAPAGRARSSTVTGGEEPTPSVAYVHTTPGLPSGWEERKDAKGRTYYVNHNNRTTTWTRPIMQLAEDGASGSATNSNNHLIEPQIRRPRSLSSPTVTLSAPLEGAKDSPVRRAVKDTLSNPQSPQPSPYNSPKPQHKVTQSFLPPGWEMRIAPNGRPFFIDHNTKTTTWEDPRLKFPVHMRSKTSLNPNDLGPLPPGWEERIHLDGRTFYIDHNSKITQWEDPRLQNPAITGPAVPYSREFKQKYDYFRKKLKKPADIPNRFEMKLHRNNIFEESYRRIMSVKRPDVLKARLWIEFESEKGLDYGGVAREWFFLLSKEMFNPYYGLFEYSATDNYTLQINPNSGLCNEDHLSYFTFIGRVAGLAVFHGKLLDGFFIRPFYKMMLGKQITLNDMESVDSEYYNSLKWILENDPTELDLMFCIDEENFGQTYQVDLKPNGSEIMVTNENKREYIDLVIQWRFVNRVQKQMNAFLEGFTELLPIDLIKIFDENELELLMCGLGDVDVNDWRQHSIYKNGYCPNHPVIQWFWKAVLLMDAEKRIRLLQFVTGTSRVPMNGFAELYGSNGPQLFTIEQWGSPEKLPRAHTCFNRLDLPPYETFEDLREKLLMAVENAQGFEGVD
# modifications: left off: FLAG, C-terminal, kept
# notes: ubiquitin ligase, Nedd4-family member, human
# Experiments:
# ENaC = assay: Amiloride-sensitive short circuit current in FRT epithelia with ENaC: Nedd4-2 dose response with SGK, SGKY298A or GFP; format: cell-based; conditions: FRT epithelia with α-, β-, γENaC, increasing amounts of Nedd4-2 (0–0.2 µg), no SGK; amiloride 10 µM; n = 18
# Description: To test the hypothesis that the interaction of the Nedd4-2 WW-domains with the SGK PY motif is required for SGK to influence Nedd4-2 function, we co-expressed α-, β- and γENaC in FRT epithelia with either wild type SGK or SGKY298A along with increasing amounts of Nedd4-2, and measured the amiloride-sensitive short circuit current.
# Figure 4 The SGK PY motif is necessary for SGK to inhibit Nedd4-2. Amiloride-sensitive short-circuit sodium current (relative to 0 µg of Nedd4-2) in FRT cells 48 hr after transfection with α-, β- and γENaC and SGK (closed circles) or SGKY298A (open circles) or GFP (closed squares), in the presence of increasing amounts of Nedd4-2, n = 18. Nedd4-2 is expressed as a fraction of the amount of ENaC cDNA. Expression of SGK and SGKY298A was reported in Figure 1B of Snyder et al..
# Fischer rat thyroid (FRT) cells were grown on permeable filter supports (Snapwell™, Corning USA or Millicell PCF, both with […] pore size, 12 mm diameter) in F-12 Coon's media with 5% fetal calf serum (Sigma), 100 U/ml penicillin, and 100 µg/ml streptomycin at 37°C. One day after seeding, cells were cotransfected with α-, β- and γENaC (0.07 µg each), 0.6 µg wildtype or mutant SGK, and 0–0.2 µg Nedd4-2 (Fig. 4 only). Total DNA was held constant (1 µg/millicell) using cloning vector DNA. The plasmids were mixed with Lipofectamine 2000 (Invitrogen) or TFX 50 (Promega, Madison, WI; 7.9 µg/millicell) in serum free F12 Coon's media for 15 minutes and transferred to the apical surface of the monolayer. One-six hours later, the apical media was replaced with F-12 Coon's media containing 5% fetal calf serum and amiloride (10 µM). Short-circuit current was measured […] after transfection in modified Ussing chambers connected to a voltage clamp (South Campus Electronics, Dunedin, New Zealand or Warner Instruments). The apical and basolateral surfaces were bathed in (in mM) 135 NaCl, 1.2 CaCl2, 1.2 MgCl2, 2.4 K2HPO4, 0.6 KH2PO4, 10 HEPES, pH 7.4, at 37°C and bubbled with O2. Amiloride-sensitive short-circuit current (Isc-amiloride) was determined as the difference in current with and without amiloride (10 µM) in the apical bathing solution. Data are presented as relative Isc-amiloride (Isc-amiloride relative) that was obtained by normalizing the Isc-amiloride to that of control cells transfected with αβγENaC in the same experiment. Transepithelial resistance (Rt) was monitored by applying repetitive voltage potential pulses (5 mV for 1 sec at 120 sec intervals) across the epithelium.
# SGK = assay: Co-immunoprecipitation of Nedd4-2 with SGK in COS7 cells; format: binding, human; conditions: Nedd4-2-FLAG and SGK-HA, IP anti-HA, blot anti-FLAG, data not shown
# Description: Co-immunoprecipitation was used to characterize an in vitro interaction between Nedd4-2 and SGK. Nedd4-2-FLAG and SGK-HA were co-expressed in COS7 cells, SGK was immunoprecipitated with anti-HA, and the presence of Nedd4-2 in the immunoprecipitates was assessed by western blotting with anti-FLAG. […] We reasoned that SGK would be rapidly turned over in the cells, and this would be enhanced by overexpression of active Nedd4-2, since Nedd4-2 is known to induce degradation of SGK [23]. Therefore we co-expressed a stable form of SGK (ΔN60SGK-HA, lacking the first 60 amino acids of SGK), together with a ligase-dead form of Nedd4-2 (Nedd4-2C821A–FLAG).
# (A) ΔN60SGK-HA and Nedd4-2C821A–FLAG were transiently co-expressed, or expressed alone as indicated, in COS7 cells. Complexes were immunoprecipitated with anti-HA antibody. Immunoprecipitates were analyzed by 10% SDS-PAGE and sequential western blotting (IB) with anti-FLAG antibody (Nedd4-2) and anti-HA antibody (ΔN60SGK). Expression of the proteins (5% input) is shown in the bottom panel, n = 3. Either ΔN60SGK-HA (B, E) or SGK-FLAG (C, D) was transiently expressed in COS7 cells. […] Bound SGK was analyzed by immunostaining with anti-FLAG/HA antibody. […]
# COS7 cells were co-transfected with ΔN60SGK-HA and Nedd4-2C821A-FLAG. […] The beads were washed four times in T-TBS and analysed by SDS-PAGE and Western blotting with anti-FLAG (Sigma).
molecule,measurement,setting,value
B1,inhibition of ENaC by Nedd4-2 in the absence of SGK (in words),ENaC,inhibited ENaC in a dose-dependent manner
same,co-immunoprecipitation with SGK (in words),SGK,co-precipitated with SGK but the amount of Nedd4-2 co-precipitated was small
